{"source": "the supplement of paper PMC10567573", "parents": {"B1": {"name": "YPEL3 (parent)", "chain": "SKPKTFQAYLDDCHRRYSCAHCRA"}}}
{"variants_of": "B1", "assay": "protein stability index of a GFP-peptide fusion (GPS, HEK-293T) (PSI 1-6); higher = more stable", "conditions": "c terminus: a fixed tail appended"}
{"variant": "SKPKTFQAYLDDVHRRYSCAHCRA", "note": "[C13V]", "protein stability index": 2.54}
{"variant": "SKPKTFQAYLDDMHRRYSCAHCRA", "note": "[C13M]", "protein stability index": 2.79}
{"variant": "SKPKTFQAYLDDHHRRYSCAHCRA", "note": "[C13H]", "protein stability index": 1.75}
{"variant": "SKPKTFQAYLDDKHRRYSCAHCRA", "note": "[C13K]", "protein stability index": 2.69}
{"variant": "SKPKTFQAYLDDWHRRYSCAHCRA", "note": "[C13W]", "protein stability index": 1.71}
{"variant": "SKPKTFQAYLDDDHRRYSCAHCRA", "note": "[C13D]", "protein stability index": 1.99}
{"variant": "SKPKTFQAYLDDTHRRYSCAHCRA", "note": "[C13T]", "protein stability index": 2.01}
{"variant": "SKPKTFQAYLDDYHRRYSCAHCRA", "note": "[C13Y]", "protein stability index": 2.44}
{"variant": "SKPKTFQAYLDDQHRRYSCAHCRA", "note": "[C13Q]", "protein stability index": 2.48}
{"variant": "SKPKTFQAYLDDNHRRYSCAHCRA", "note": "[C13N]", "protein stability index": 2.27}
{"variant": "SKPKTFQAYLDDAHRRYSCAHCRA", "note": "[C13A]", "protein stability index": 1.8}
{"variant": "SKPKTFQAYLDDLHRRYSCAHCRA", "note": "[C13L]", "protein stability index": 2.12}
{"variant": "SKPKTFQAYLDDPHRRYSCAHCRA", "note": "[C13P]", "protein stability index": 1.68}
{"variant": "SKPKTFQAYLDDRHRRYSCAHCRA", "note": "[C13R]", "protein stability index": 2.19}
{"variant": "SKPKTFQAYLDDEHRRYSCAHCRA", "note": "[C13E]", "protein stability index": 1.78}
{"variant": "SKPKTFQAYLDDFHRRYSCAHCRA", "note": "[C13F]", "protein stability index": 2.1}
{"variant": "SKPKTFQAYLDDGHRRYSCAHCRA", "note": "[C13G]", "protein stability index": 2.07}
{"variant": "SKPKTFQAYLDDSHRRYSCAHCRA", "note": "[C13S]", "protein stability index": 2.25}
{"variant": "SKPKTFQAYLDDIHRRYSCAHCRA", "note": "[C13I]", "protein stability index": 1.94}
{"variant": "SKPKTFQAYLIDCHRRYSCAHCRA", "note": "[D11I]", "protein stability index": 2.92}
{"variant": "SKPKTFQAYLADCHRRYSCAHCRA", "note": "[D11A]", "protein stability index": 1.89}
{"variant": "SKPKTFQAYLSDCHRRYSCAHCRA", "note": "[D11S]", "protein stability index": 1.9}
{"variant": "SKPKTFQAYLYDCHRRYSCAHCRA", "note": "[D11Y]", "protein stability index": 1.72}
{"variant": "SKPKTFQAYLCDCHRRYSCAHCRA", "note": "[D11C]", "protein stability index": 3.36}
{"variant": "SKPKTFQAYLTDCHRRYSCAHCRA", "note": "[D11T]", "protein stability index": 2.14}
{"variant": "SKPKTFQAYLGDCHRRYSCAHCRA", "note": "[D11G]", "protein stability index": 1.97}
{"variant": "SKPKTFQAYLVDCHRRYSCAHCRA", "note": "[D11V]", "protein stability index": 1.75}
{"variant": "SKPKTFQAYLRDCHRRYSCAHCRA", "note": "[D11R]", "protein stability index": 1.9}
{"variant": "SKPKTFQAYLEDCHRRYSCAHCRA", "note": "[D11E]", "protein stability index": 2.59}
{"variant": "SKPKTFQAYLMDCHRRYSCAHCRA", "note": "[D11M]", "protein stability index": 2.47}
{"variant": "SKPKTFQAYLWDCHRRYSCAHCRA", "note": "[D11W]", "protein stability index": 1.5}
{"variant": "SKPKTFQAYLKDCHRRYSCAHCRA", "note": "[D11K]", "protein stability index": 2.83}
{"variant": "SKPKTFQAYLNDCHRRYSCAHCRA", "note": "[D11N]", "protein stability index": 2.6}
{"variant": "SKPKTFQAYLFDCHRRYSCAHCRA", "note": "[D11F]", "protein stability index": 3.03}
{"variant": "SKPKTFQAYLQDCHRRYSCAHCRA", "note": "[D11Q]", "protein stability index": 2.21}
{"variant": "SKPKTFQAYLLDCHRRYSCAHCRA", "note": "[D11L]", "protein stability index": 2.11}
{"variant": "SKPKTFQAYLPDCHRRYSCAHCRA", "note": "[D11P]", "protein stability index": 2.54}
{"variant": "SKPKTFQAYLHDCHRRYSCAHCRA", "note": "[D11H]", "protein stability index": 2.37}
{"variant": "SKPKTFQAYLDDCHSRYSCAHCRA", "note": "[R15S]", "protein stability index": 1.61}
{"variant": "SKPKTFQAYLDDCHVRYSCAHCRA", "note": "[R15V]", "protein stability index": 1.57}
{"variant": "SKPKTFQAYLDDCHHRYSCAHCRA", "note": "[R15H]", "protein stability index": 2.72}
{"variant": "SKPKTFQAYLDDCHFRYSCAHCRA", "note": "[R15F]", "protein stability index": 2.07}
{"variant": "SKPKTFQAYLDDCHKRYSCAHCRA", "note": "[R15K]", "protein stability index": 2.15}
{"variant": "SKPKTFQAYLDDCHERYSCAHCRA", "note": "[R15E]", "protein stability index": 3.59}
{"variant": "SKPKTFQAYLDDCHTRYSCAHCRA", "note": "[R15T]", "protein stability index": 2.48}
{"variant": "SKPKTFQAYLDDCHQRYSCAHCRA", "note": "[R15Q]", "protein stability index": 1.65}
{"variant": "SKPKTFQAYLDDCHDRYSCAHCRA", "note": "[R15D]", "protein stability index": 2.67}
{"variant": "SKPKTFQAYLDDCHGRYSCAHCRA", "note": "[R15G]", "protein stability index": 1.88}
{"variant": "SKPKTFQAYLDDCHWRYSCAHCRA", "note": "[R15W]", "protein stability index": 2.2}
{"variant": "SKPKTFQAYLDDCHNRYSCAHCRA", "note": "[R15N]", "protein stability index": 2.79}
{"variant": "SKPKTFQAYLDDCHLRYSCAHCRA", "note": "[R15L]", "protein stability index": 2.01}
{"variant": "SKPKTFQAYLDDCHIRYSCAHCRA", "note": "[R15I]", "protein stability index": 2.25}
{"variant": "SKPKTFQAYLDDCHARYSCAHCRA", "note": "[R15A]", "protein stability index": 2.1}
{"variant": "SKPKTFQAYLDDCHMRYSCAHCRA", "note": "[R15M]", "protein stability index": 1.68}
{"variant": "SKPKTFQAYLDDCHPRYSCAHCRA", "note": "[R15P]", "protein stability index": 1.82}
{"variant": "SKPKTFQAYLDDCHCRYSCAHCRA", "note": "[R15C]", "protein stability index": 2.72}
{"variant": "SKPKTFQAYLDDCHYRYSCAHCRA", "note": "[R15Y]", "protein stability index": 1.56}
{"variant": "SKPKTFQAYQDDCHRRYSCAHCRA", "note": "[L10Q]", "protein stability index": 2.48}
{"variant": "SKPKTFQAYHDDCHRRYSCAHCRA", "note": "[L10H]", "protein stability index": 3.32}
{"variant": "SKPKTFQAYYDDCHRRYSCAHCRA", "note": "[L10Y]", "protein stability index": 1.97}
{"variant": "SKPKTFQAYFDDCHRRYSCAHCRA", "note": "[L10F]", "protein stability index": 1.99}
{"variant": "SKPKTFQAYSDDCHRRYSCAHCRA", "note": "[L10S]", "protein stability index": 2.8}
{"variant": "SKPKTFQAYEDDCHRRYSCAHCRA", "note": "[L10E]", "protein stability index": 3.4}
{"variant": "SKPKTFQAYDDDCHRRYSCAHCRA", "note": "[L10D]", "protein stability index": 2.53}
{"variant": "SKPKTFQAYADDCHRRYSCAHCRA", "note": "[L10A]", "protein stability index": 2.54}
{"variant": "SKPKTFQAYKDDCHRRYSCAHCRA", "note": "[L10K]", "protein stability index": 2.94}
{"variant": "SKPKTFQAYTDDCHRRYSCAHCRA", "note": "[L10T]", "protein stability index": 2.14}
{"variant": "SKPKTFQAYGDDCHRRYSCAHCRA", "note": "[L10G]", "protein stability index": 2.79}
{"variant": "SKPKTFQAYCDDCHRRYSCAHCRA", "note": "[L10C]", "protein stability index": 3.6}
{"variant": "SKPKTFQAYWDDCHRRYSCAHCRA", "note": "[L10W]", "protein stability index": 2.05}
{"variant": "SKPKTFQAYVDDCHRRYSCAHCRA", "note": "[L10V]", "protein stability index": 1.57}
{"variant": "SKPKTFQAYRDDCHRRYSCAHCRA", "note": "[L10R]", "protein stability index": 2.62}
{"variant": "SKPKTFQAYIDDCHRRYSCAHCRA", "note": "[L10I]", "protein stability index": 2.41}
{"variant": "SKPKTFQAYMDDCHRRYSCAHCRA", "note": "[L10M]", "protein stability index": 1.75}
{"variant": "SKPKTFQAYPDDCHRRYSCAHCRA", "note": "[L10P]", "protein stability index": 2.79}
{"variant": "SKPKTFQAYNDDCHRRYSCAHCRA", "note": "[L10N]", "protein stability index": 2.62}
{"variant": "SKPKTFQAYLDDCHRRYSNAHCRA", "note": "[C19N]", "protein stability index": 3.42}
{"variant": "SKPKTFQAYLDDCHRRYSGAHCRA", "note": "[C19G]", "protein stability index": 2.68}
{"variant": "SKPKTFQAYLDDCHRRYSAAHCRA", "note": "[C19A]", "protein stability index": 2.51}
{"variant": "SKPKTFQAYLDDCHRRYSDAHCRA", "note": "[C19D]", "protein stability index": 3.27}
{"variant": "SKPKTFQAYLDDCHRRYSHAHCRA", "note": "[C19H]", "protein stability index": 2.96}
{"variant": "SKPKTFQAYLDDCHRRYSFAHCRA", "note": "[C19F]", "protein stability index": 1.53}
{"variant": "SKPKTFQAYLDDCHRRYSKAHCRA", "note": "[C19K]", "protein stability index": 2.64}
{"variant": "SKPKTFQAYLDDCHRRYSIAHCRA", "note": "[C19I]", "protein stability index": 2.33}
{"variant": "SKPKTFQAYLDDCHRRYSEAHCRA", "note": "[C19E]", "protein stability index": 3.18}
{"variant": "SKPKTFQAYLDDCHRRYSLAHCRA", "note": "[C19L]", "protein stability index": 2.08}
{"variant": "SKPKTFQAYLDDCHRRYSPAHCRA", "note": "[C19P]", "protein stability index": 2.85}
{"variant": "SKPKTFQAYLDDCHRRYSMAHCRA", "note": "[C19M]", "protein stability index": 1.63}
{"variant": "SKPKTFQAYLDPCHRRYSCAHCRA", "note": "[D12P]", "protein stability index": 2.57}
{"variant": "SKPKTFQAYLDECHRRYSCAHCRA", "note": "[D12E]", "protein stability index": 2.36}
{"variant": "SKPKTFQAYLDTCHRRYSCAHCRA", "note": "[D12T]", "protein stability index": 2.35}
{"variant": "SKPKTFQAYLDGCHRRYSCAHCRA", "note": "[D12G]", "protein stability index": 2.64}
{"variant": "SKPKTFQAYLDVCHRRYSCAHCRA", "note": "[D12V]", "protein stability index": 1.96}
{"variant": "SKPKTFQAYLDQCHRRYSCAHCRA", "note": "[D12Q]", "protein stability index": 2.01}
